According to article PMC2783965:
Where two headings read alike, the source gives them in different places.

Legend:
Assay in all cases: FRET or BRET
[1] = target: 43S pre-initiation complex without eIF1 (40S•eIF1A-TAMRA•TC) (S. cerevisiae) (UniProt P38912)
[2] = target: 43S pre-initiation complex without eIF1 (40S•eIF1A-TAMRA•TC) (S. cerevisiae) (UniProt P38912); remark: listed apart in the source
[3] = target: 43S pre-initiation complex without eIF1 (40S•eIF1A-TAMRA•TC) (S. cerevisiae) (UniProt P38912); remark: listed apart in the source
[4] = target: 43S pre-initiation complex without eIF1 (40S•eIF1A-TAMRA•TC) (S. cerevisiae) (UniProt P38912); remark: listed apart in the source
[5] = target: 43S pre-initiation complex without eIF1 (40S•eIF1A-TAMRA•TC) (S. cerevisiae) (UniProt P38912); remark: listed apart in the source

UniProt P38912, sequence (P38912 whole entry, looked up, one chain of several): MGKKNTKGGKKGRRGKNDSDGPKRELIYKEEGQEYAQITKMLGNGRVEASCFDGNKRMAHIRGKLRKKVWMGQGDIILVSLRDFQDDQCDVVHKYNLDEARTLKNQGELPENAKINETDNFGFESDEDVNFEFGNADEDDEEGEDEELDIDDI

kobs of eIF1 dissociation (slow phase) [1]	kobs of eIF1 dissociation (slow phase) [2]	kobs of eIF1 dissociation (slow phase) [3]	kobs of eIF1 dissociation (slow phase) [4]	kobs of eIF1 dissociation (slow phase) [5]	Substance
0.08 s⁻¹	0.1 s⁻¹				fluorescein-labeled G107K eIF1 (from UniProt P32911 1-108) (natural protein)
0.13 s⁻¹	0.4 s⁻¹	0.4 s⁻¹	0.56 s⁻¹	0.14 s⁻¹	fluorescein-labeled WT eIF1 (from UniProt P32911 1-108) (natural protein)
